Data taken from patent US20200247901A1.

Biological target: mesothelin on RH29 mesothelioma cells (V and M variant ratio 50:50) (human) (UniProt Q13421)
Experiment: cell-based or functional assay

Chain of mesothelin on RH29 mesothelioma cells (V and M variant ratio 50:50) (human) (Q13421 other isoform, or with tags, fused parts or gaps mutant limits assumed): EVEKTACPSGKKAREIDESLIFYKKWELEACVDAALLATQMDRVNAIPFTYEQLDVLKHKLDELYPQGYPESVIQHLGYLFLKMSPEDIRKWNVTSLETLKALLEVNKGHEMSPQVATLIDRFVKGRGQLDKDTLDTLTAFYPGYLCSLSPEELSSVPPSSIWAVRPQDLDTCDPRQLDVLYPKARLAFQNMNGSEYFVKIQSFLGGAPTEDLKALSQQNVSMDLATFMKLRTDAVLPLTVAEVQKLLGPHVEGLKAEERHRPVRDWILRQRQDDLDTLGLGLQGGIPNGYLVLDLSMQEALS

decrease in mesothelin shedding from RH29 cells (ELISA of shed mesothelin, OD value): 50%
B1: 15B6 anti-mesothelin antibody (IgG2b) (antibody, V domains shown)
VH: EVQLQQSGPVLVKPGASVKISCKASGYSFTGYYMHWVRQSLVKRLEWIGRINPYTGVPSYKHNFKDKASLTVDKSSSTAYMELHSLTSEDSAVYYCARELGGYWGQGTTLTVSS
VL: QAVVTQESALTTSPGETVTLTCRSSTGAVTTGNYPNWVQEKPDHLFTGLIAGTNNRAPGVPARFSGSLIGDKAALTITGAQTEDEAIYFCALWFSSHWVFGGGTKLTVL
